Experimental data taken from US9840539B2, “High affinity digoxigenin binding proteins” (UNIVERSITY OF WASHINGTON THROUGH ITS CENTER FOR …, priority 2013, dated 2017).
Positions count from the first letter of the chain named. Numbers in names are those of the source. Entries after “also recorded” stand apart in the source; their conditions may differ. Read-outs that look alike come from different tables or passages of the source.

B1: DIG5: computationally designed digoxigenin binding polypeptide from scaffold 1z1s, SEQ ID NO: 10 (protein)
chain: MNAKEILVHSLRLLENGDARGWCDLFHPEGVLEFPYAPPGWKTRFEGRETIWAHMRLHPEHVTVRFTDVQFYETADPDLAIGEYHGDGVVTVSGGKYAADFITVLRTRDGQILLYRVFWNPLRALEAAGGVEAAAKIVQGA
modifications: (130)..(141) amino acids are optionally absent
B2: DIG10: computationally designed digoxigenin binding polypeptide from scaffold 1z1s, SEQ ID NO: 12 (protein)
chain: MNAKEIVVHSLRLLENGDARGWCDLFHPEGVLEYPYAPPGHKTRFEGRETIWAHMRLFPEYVTVRFTDVQFYETADPDLAIGEFHGDGVHTVSGGKLAADYISVLRTRDGQILLYRVFFNPLRVLEALGGVEAAAKIVQGA
modifications: (130)..(141) amino acids are optionally absent
B3: 1z1s: scaffold, hypothetical protein of unknown function from Pseudomonas aeruginosa, SEQ ID NO: 24 (protein)
chain: B2 chain with V7L, Y34F, H41W, Y61H, V62L, H90A, A99Q, V117D, F119W, V124H
B4: DIG10.1a: affinity matured DIG10 variant with S10A, V62M, V64I, V117L, A127P; SEQ ID NO: 13 (protein)
chain: B2 chain with S10A, V62M, V64I, V117L, A127P
modifications: (130)..(141) amino acids are optionally absent
B5: DIG10.2: DIG10.1a variant with A37P and H41Y, SEQ ID NO: 14 (protein)
chain: B2 chain with S10A, A37P, H41Y, V62M, V64I, V117L, A127P
modifications: (130)..(141) amino acids are optionally absent

Key:
[1] = Fluorescence polarization equilibrium binding assay with purified protein; details: for affinity for DIG-PEG3-Alexa488 by fluorescence polarization (in words): purified protein in solution
Procedure: Proteins were expressed in E. coli Rosetta 2 (DE3) cells with a C-terminal TEV protease cleavable His6 tag for biochemical assays. For crystallographic analysis of DIG10 variants, a 12-amino acid structurally disordered C-terminus deriving from the scaffold protein 1z1s was replaced directly with a His6 tag. Binding affinities were determined by equilibrium fluorescence polarization^30 on a SpectraMax M5e microplate reader by monitoring the anisotropy of DIG-conjugated Alexa488 as a function of protein concentration. Equilibrium fluorescence polarization competition assays were performed by examining the effect of increasing concentrations of unlabeled DIG, digitoxigenin, progesterone, and β-estradiol on the anisotropy of designed protein-DIG-conjugated Alexa488 complex.
Fluorescence polarization binding assays. Fluorescence polarization-based affinity measurements of designs and their evolved variants were performed as described^46 using Alexa488-conjugated DIG (DIG-PEG3-Alexa488). Fluorescence anisotropy (r) was measured in 96-well plate format on a SpectraMax M5e microplate reader (Molecular Devices) with λex=485 nM and λem=538 nM using a 515 nm emission cutoff filter. Fluorescence polarization equilibrium competition binding assays were used to determine the binding affinities of DIG10.3 and its variants for unlabeled digoxigenin, digitoxigenin, progesterone, β-estradiol, and digoxin. The inhibition constant for each protein-ligand interaction, Ki, was calculated from the measured total unlabeled ligand producing 50% binding signal inhibition (I50) and the Kd of the protein-label interaction according to a model accounting for receptor-depletion conditions^46.
Fluorescence polarization equilibrium binding assays. Fluorescence polarization-based affinity measurements of designs and their evolved variants were performed as noted previously^47 using Alexa488-conjugated DIG (DIG-PEG3-Alexa488). In a typical experiment, the concentration of DIG-PEG3-Alexa488 was fixed below the Kd of the interaction being monitored and the effect of increasing concentrations of protein on the fluorescence anisotropy of Alexa488 was determined. Fluorescence anisotropy (r) was measured in 96-well plate format on a SpectraMax M5e microplate reader (Molecular Devices) with λex=485 nM and λem=538 nM using a 515 nm emission cutoff filter. In all experiments, PBS (pH 7.4) was used as the buffer system and the temperature was 25° C. DIG-PEG3-Alexa488 solutions were prepared from a 1 mM stock in DMSO. Equilibrium dissociation constants (Kd) were determined by fitting plots of the anisotropy averaged over a period of 20 to 40 min after reaction initiation versus protein concentration as described previously^47. […]

[2] = Yeast surface display flow cytometry binding assay, DIG-RNase-biotin and SAPE; details: for compensated mean binding (PE) signal on yeast: 2.7 μM DIG-RNase-biotin pre-incubated with SAPE
Source text: (§1) DIG10.1a-derived library DNA was sequenced in paired-end mode on an Illumina MiSeq.
(§2) General experimental methods. Detailed procedures for the syntheses of DIG-BSA-biotin, DIG-RNase-biotin, DIG-PEG3-biotin, and DIG-PEG3-Alexa488, as well as protein expression, purification, and crystallization, cloning, and mutagenesis methods are given in Supplementary Methods. Details about fluorescence polarization binding assays, gel filtration analysis, and protein stability measurements are also provided in Supplementary Methods. Yeast surface display. Designed proteins were tested for binding using yeast-surface display^40. […] DIG binding was assessed by quantifying the phycoerythrin (PE) fluorescence of the displaying yeast population following incubation with DIG-BSA-biotin, DIG-RNase-biotin, or DIG-PEG3-biotin, and streptavidin-phycoerythrin (SAPE). In a typical experiment using DIG-BSA-biotin or DIG-RNase-biotin, cells were resuspended in a premixed solution of PBSF (PBS+1 g/L of BSA) containing a 1:100 dilution of anti-cmyc FITC, […] DIG-BSA-biotin or DIG-RNase biotin, and 664 nM SAPE for 2-4 hr incubation at 4° C. Cellular fluorescence was monitored on an Accuri C6 flow cytometer using a 488 nm laser for excitation and a 575 nm band pass filter for emission. Phycoerythrin fluorescence was compensated to minimize bleed-over contributions from the FITC channel. Competition assays with free digoxigenin were performed as above except that between 750 μM and 1.5 mM of digoxigenin was added to each labeling reaction mixture. Full details are given in Supplementary Methods.
(§3) Yeast surface display assays. Designed proteins were tested for binding using yeast-surface display^23. Designs DIG1-17/pET29FLAG, DigA16/pET29FLAG, and 3hk4/pET29FLAG were subcloned into the NdeI/XhoI cloning sites of pETCON^24. Designs and control proteins in pETCON were transformed into EBY100 cells using lithium acetate and polyethylene glycol^25 with dH2O instead of single stranded carrier DNA and were plated on selective media (C -ura -trp). Freshly transformed cells were inoculated into 1 mL of SDCAA media^23 and grown at 30° C., 200 rpm. After ˜12 hrs, 1e7 cells were collected by centrifugation at 1,700×g for 3 min and resuspended in 1 mL of SGCAA media to induce protein expression. Following induction for 24-48 hrs at 18° C., 4e6 cells were collected by centrifugation, and washed twice by incubation with PBSF (PBS supplemented with […]) for 10 min at room temperature
(§4) DIG binding was assessed by quantifying the phycoerythrin (PE) fluorescence of the displaying yeast population following incubation with DIG-BSA-biotin, DIG-RNase-biotin, or DIG-PEG3-biotin, and streptavidin-phycoerythrin (SAPE; Invitrogen, Carlsbad, Calif.). In a typical experiment using DIG-BSA-biotin or DIG-RNase-biotin. 4e6 cells were resuspended in 50 μL of a premixed solution of PBSF containing a 1:100 dilution of anti-cmyc FITC, 2.66 μM DIG-BSA-biotin or DIG-RNase biotin, and 664 nM SAPE. Following a 2-4 hr incubation at 4° C. in the dark on a rotator, cells were collected by centrifugation at 1,700×g for 3 min and washed with 200 μL of PBSF at 4° C. Cell pellets were resuspended in 200 μL of ice-cold PBSF immediately before use. Cellular fluorescence was monitored on an Accuri C6 flow cytometer using a 488 nm laser for excitation and a 575 nm band pass filter for emission. Phycoerythrin fluorescence was compensated to minimize bleed-over contributions from the FITC fluorescence channel. […]

[3] = Yeast surface display flow cytometry binding assay, DIG-BSA-biotin and SAPE; details: for compensated mean binding (PE) signal on yeast: 2.7 μM DIG-BSA-biotin pre-incubated with SAPE; for binding in presence of unlabeled DIG competitor: DIG-BSA or DIG-RNase label, ˜1 mM unlabeled DIG
Source text: as §1, §2, §3, §4

[4] = Circular dichroism spectroscopy, temperature melting; assay type: physicochemical
Procedure: Circular dichroism spectroscopy. Circular dichroism spectra were collected on an Aviv 62A DS spectrometer. Samples were prepared in PBS. Fixed-temperature scans were conducted at 25° C. All proteins were stable <°60 C.

Row | Molecule | affinity for DIG-PEG3-Alexa488 by fluorescence polarization (in words) [1] | compensated mean binding (PE) signal on yeast [2] | binding (PE) signal in presence of unlabeled DIG competitor ([2]; 2.7 μM DIG-RNase-biotin, 790 μM unlabeled DIG) | compensated mean binding (PE) signal on yeast [3] | binding in presence of unlabeled DIG competitor [3] | thermal stability by CD temperature melting ([4]; PBS) | increase of binding affinity relative to DIG10 ([1]; after one round of mutagenesis and selections) [fold] | binding (PE) signal, stringent multistep labeling ([2]; 5 pM DIG-RNase, then SAPE) | thermal stability by CD temperature melting [4]
1 | B1 | low to mid micromolar range | strong binding signals | reduced to that of the negative control ZZ(−) | slightly above background levels | reduced to background levels |  |  |  | 
2 | B2 | low to mid micromolar range | strong binding signals |  | strong binding signals | reduced to background levels |  |  |  | 
3 | B3 | does not bind | does not show a binding signal |  | does not bind to either label |  | stable at temperatures below 60 °C |  |  | 
4 | B4 |  |  |  |  |  |  | 75 | slightly higher signal; also recorded: strong binding signals | stable at temperatures below 60 °C
5 | B5 |  |  |  |  |  |  |  |  | stable at temperatures below 60 °C
